Assay [1] addresses human α-CGRP K35A (19-37) (human). The assay is described as follows: SPR (Biacore), 25 °C, Fab over peptide on SA chip; KD of mutant over KD of parent 19-37.
The target in assay [2] is human α-CGRP F37A (25-37) (human). Put plainly: SPR (Biacore), 25 °C, Fab over peptide on SA chip; KD of mutant over KD of parent 25-37. Background: Surface plasmon resonance follows binding to a sensor surface in real time, without labels.
Assay [3] concerns the target human α-CGRP G33A (25-37) (human). The assay is described as above.
Assay [4] has as its target human α-CGRP S34A (25-37) (human). The assay is described as above.
Assay [5] has as its target human α-CGRP P29A (25-37) (human). The assay is described as above.
Assay [6] concerns the target human α-CGRP N31A (25-37) (human). The assay is described as above.
Assay [7] addresses human α-CGRP V32A (25-37) (human). Described as above.
The target in assay [8] is human α-CGRP T30A (25-37) (human). The assay is described as above.

As for “murine anti-CGRP monoclonal antibody 7E9, Fab fragment”, the KD (mutant/parent) in assay [1] is 4; in assay [2], 3600; in assay [3], 1260; in assay [4], 69; in assay [5] it was 26; in assay [6], 9. Further, the KD (mutant/parent) in assay [7] is 41; in assay [8], 7.

Values taken from US20220098287A1.
